Biological target: Oct1 DNA binding domain (Oct1-DBD) (human (from pBabe-hOct1), UniProt P14859 280-438)
Assay: EMSA; EMSA: 0.6X buffer D (1X: 20 mM HEPES, 100 mM KCl, 1 mM DTT), 50 ng/ul poly-dI/dC, 1 ug/ul BSA, on ice 15 min, 6% native PAGE in 0.5X TBE; probe 50 nM (1 nM for)
Settings: protein: recombinant; tags: His (pET28a); blunt

Chain of Oct1 DNA binding domain (Oct1-DBD) (P14859 280-438): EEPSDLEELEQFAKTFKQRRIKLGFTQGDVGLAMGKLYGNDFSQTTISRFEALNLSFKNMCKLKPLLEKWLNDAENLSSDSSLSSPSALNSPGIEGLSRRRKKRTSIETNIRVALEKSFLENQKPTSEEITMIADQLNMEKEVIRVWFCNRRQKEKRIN

B1: RHS5_12-Cy5 (dsDNA)
DNA 1: TCGAGAAGCGCTGATTAGCATCTGTCATTA
DNA 2: TAATGACAGATGCTAATCAGCGCTTCTCGA
B1: binds.

B2: RHS6-Cy5 (dsDNA)
DNA 1: CACCATGCAAAGGATGTGCGCGGACTCCCTTCCATTTGCTGGCCTCTTATCTGATA
DNA 2: TATCAGATAAGAGGCCAGCAAATGGAAGGGAGTCCGCGCACATCCTTTGCATGGTG
B2: binds.
